# Source: the RNAGym collection of RNA variant scans (doi:10.7554/elife.80360)
# B1: Hairpin Ribozyme (parent)
# chain: GUCCUCUUUCACGUGCGCGUGAAAGAGAGAAGUGAACCAGAGAAACACACGUUGUGGUAUAUUACCUGGUA
# Variants of: B1
# Assay: self-cleavage, relative activity (ratio to wild type); higher = more cleavage; co-transcriptional
row,Variant,self-cleavage
1,GUCCUCUUUCACGUGCGUGUGAAAGAGAGAAGUGAACCAGAGAAACACACGUUGUGGUAUAUUACCUGCUA [C18U G69C],0.334
2,GUCCUCUUUCACGUGCGUGUGAAAGAGAGAAGUGAACCAGAGAAACACACGUUGUGGUAUAUUACCUGUUA [C18U G69U],0.272
3,GUCCUCUUUCACGUGCGUGAGAAAGAGAGAAGUGAACCAGAGAAACACACGUUGUGGUAUAUUACCUGGUA [C18U U20A],0.848
4,GUCCUCUUUCACGUGCGUGCGAAAGAGAGAAGUGAACCAGAGAAACACACGUUGUGGUAUAUUACCUGGUA [C18U U20C],1.06
5,GUCCUCUUUCACGUGCGUGUGAAAGAGAGAAGAGAACCAGAGAAACACACGUUGUGGUAUAUUACCUGGUA [C18U U33A],0.242
6,GUCCUCUUUCACGUGCGUGUGAAAGAGAGAAGUGAACCAGAGAAACACACGUUGAGGUAUAUUACCUGGUA [C18U U55A],0.128
7,GUCCUCUUUCACGUGCGUGUGAAAGAGAGAAGUGAACCAGAGAAACACACGUUGUGGCAUAUUACCUGGUA [C18U U58C],1.17
8,GUCCUCUUUCACGUGCGUGUGAAAGAGAGAAGUGAACCAGAGAAACACACGUUGUGGGAUAUUACCUGGUA [C18U U58G],0.991
9,GUCCUCUUUCACGUGCGUGUGAAAGAGAGAAGUGAACCAGAGAAACACACGUUGUGGUAUACUACCUGGUA [C18U U62C],0.393
10,GUCCUCUUUCACGUGCGUGUGAAAGAGAGAAGUGAACCAGAGAAACACACGUUGUGGUAUAUAACCUGGUA [C18U U63A],0.229
11,GUCCUCUUUCACGUGCGUGUGAAAGAGAGAAGUGAACCAGAGAAACACACGUUGUGGUAUAUCACCUGGUA [C18U U63C],0.18
12,GUCCUCUUUCACGUGCGUGUGAAAGAGAGAAGUGAACCAGAGAAACACACGUUGUGGUAUAUGACCUGGUA [C18U U63G],0.278
13,GUCCUCUUUCACGUGCGUGUGAAAGAGAGAAGUGAACCAGAGAAACACACGUUGUGGUAUAUUACCAGGUA [C18U U67A],0.109
14,GUCCUCUUUCACGUGCGUGUGAAAGAGAGAAGUGAACCAGAGAAACACACGUUGUGGUAUAUUACCCGGUA [C18U U67C],0.249
15,GUCCUCUUUCACGUGCGUGUGAAAGAGAGAAGUGAACCAGAGAAACACACGUUGUGGUAUAUUACCUGGCA [C18U U70C],0.984
16,GUCCUCUUUCACGUGCGCAUGAAAGAGAGAAGUGAACCAGAGAAACACACGUUGUGGUAUAUUACCUGGUA [G19A],0.853
17,GUCCUCUUUCACGUGCGCAUGAGAGAGAGAAGUGAACCAGAGAAACACACGUUGUGGUAUAUUACCUGGUA [G19A A23G],0.948
18,GUCCUCUUUCACGUGCGCAUGAAUGAGAGAAGUGAACCAGAGAAACACACGUUGUGGUAUAUUACCUGGUA [G19A A24U],0.629
19,GUCCUCUUUCACGUGCGCAUGAAAGCGAGAAGUGAACCAGAGAAACACACGUUGUGGUAUAUUACCUGGUA [G19A A26C],0.541

row,Variant,self-cleavage
1,GUCCUCUUUCACGUGCGCAUGAAAGGGAGAAGUGAACCAGAGAAACACACGUUGUGGUAUAUUACCUGGUA [G19A A26G],0.932
2,GUCCUCUUUCACGUGCGCAUGAAAGAGGGAAGUGAACCAGAGAAACACACGUUGUGGUAUAUUACCUGGUA [G19A A28G],0.934
3,GUCCUCUUUCACGUGCGCAUGAAAGAGUGAAGUGAACCAGAGAAACACACGUUGUGGUAUAUUACCUGGUA [G19A A28U],0.408
4,GUCCUCUUUCACGUGCGCAUGAAAGAGAGCAGUGAACCAGAGAAACACACGUUGUGGUAUAUUACCUGGUA [G19A A30C],0.146
5,GUCCUCUUUCACGUGCGCAUGAAAGAGAGGAGUGAACCAGAGAAACACACGUUGUGGUAUAUUACCUGGUA [G19A A30G],0.149
6,GUCCUCUUUCACGUGCGCAUGAAAGAGAGAAGUGCACCAGAGAAACACACGUUGUGGUAUAUUACCUGGUA [G19A A35C],0.987
7,GUCCUCUUUCACGUGCGCAUGAAAGAGAGAAGUGGACCAGAGAAACACACGUUGUGGUAUAUUACCUGGUA [G19A A35G],1.01
8,GUCCUCUUUCACGUGCGCAUGAAAGAGAGAAGUGUACCAGAGAAACACACGUUGUGGUAUAUUACCUGGUA [G19A A35U],0.607
9,GUCCUCUUUCACGUGCGCAUGAAAGAGAGAAGUGACCCAGAGAAACACACGUUGUGGUAUAUUACCUGGUA [G19A A36C],0.511
10,GUCCUCUUUCACGUGCGCAUGAAAGAGAGAAGUGAUCCAGAGAAACACACGUUGUGGUAUAUUACCUGGUA [G19A A36U],0.542
11,GUCCUCUUUCACGUGCGCAUGAAAGAGAGAAGUGAACCCGAGAAACACACGUUGUGGUAUAUUACCUGGUA [G19A A39C],0.437
12,GUCCUCUUUCACGUGCGCAUGAAAGAGAGAAGUGAACCGGAGAAACACACGUUGUGGUAUAUUACCUGGUA [G19A A39G],0.274
13,GUCCUCUUUCACGUGCGCAUGAAAGAGAGAAGUGAACCAGUGAAACACACGUUGUGGUAUAUUACCUGGUA [G19A A41U],1.11
14,GUCCUCUUUCACGUGCGCAUGAAAGAGAGAAGUGAACCAGAGGAACACACGUUGUGGUAUAUUACCUGGUA [G19A A43G],0.16
15,GUCCUCUUUCACGUGCGCAUGAAAGAGAGAAGUGAACCAGAGUAACACACGUUGUGGUAUAUUACCUGGUA [G19A A43U],0.102
16,GUCCUCUUUCACGUGCGCAUGAAAGAGAGAAGUGAACCAGAGAGACACACGUUGUGGUAUAUUACCUGGUA [G19A A44G],0.137
17,GUCCUCUUUCACGUGCGCAUGAAAGAGAGAAGUGAACCAGAGAUACACACGUUGUGGUAUAUUACCUGGUA [G19A A44U],0.269
18,GUCCUCUUUCACGUGCGCAUGAAAGAGAGAAGUGAACCAGAGAAACGCACGUUGUGGUAUAUUACCUGGUA [G19A A47G],0.183
19,GUCCUCUUUCACGUGCGCAUGAAAGAGAGAAGUGAACCAGAGAAACACACGUUGUGGUCUAUUACCUGGUA [G19A A59C],0.199
